Literature values in patent publication US7696205B2, “Cyclic derivatives as modulators of chemokine receptor activity” (Bristol-Myers Squibb Company, priority 2003, dated 2010).

Tested on: MCP-1 expression in peripheral blood mononuclear cells
Conditions: effective therapy in human multiple sclerosis

B1: interferon b-1b: effective therapy in human multiple sclerosis (protein, UniProt P01574 22-187, looked up, variant C17S)
Interferon beta: MSYNLLGFLQRSSNFQSQKLLWQLNGRLEYCLKDRMNFDIPEEIKQLQQFQKEDAALTIYEMLQNIFAIFRQDSSSTGWNETIVENLLANVYHQINHLKTVLEEKLEKEDFTRGKLMSSLHLKRYYGRILHYLKAKEYSHCAWTIVRVEILRNFYFINRLTGYLRN
- effect on MCP-1 expression in peripheral blood mononuclear cells: reduces MCP-1 expression
